How the values were obtained:
[1] = molecular target: T1, recombinant cynomolgus monkey TL1A (cynomolgus monkey, UniProt O95150 72-251 (human entry)); test: SPR, antibody injected over captured biotinylated TL1A, 37° C.
T1 construct: biotinylated for SPR capture; also called cyno TL1A
T1 chain: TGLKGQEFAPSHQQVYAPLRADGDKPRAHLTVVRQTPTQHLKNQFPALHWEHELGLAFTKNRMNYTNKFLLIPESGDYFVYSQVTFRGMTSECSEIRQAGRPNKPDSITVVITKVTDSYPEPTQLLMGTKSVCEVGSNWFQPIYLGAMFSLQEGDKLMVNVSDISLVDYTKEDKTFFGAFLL
Procedure: (§1) For these analyses, kinetic assays were conducted at 37° C. using a collection rate of 10 Hz on a Biacore™ T200 instrument (GE Healthcare). […] The association phase was 90 seconds, and the dissociation phases were 1600 seconds over human, cynomolgus monkey and rabbit TL1A and 180 seconds for mouse and rat TL1A.
(§2) In order to determine binding to TL1A, kinetic assays were conducted at 37° C. using a collection rate of 10 Hz on a Biacore™ T200 instrument (GE Healthcare).

recombinant mouse TL1A [2] = molecular target: T2, recombinant mouse TL1A (mouse, UniProt Q5UBV8 75-252); test: as above
T2 construct: biotinylated for SPR capture
T2 chain: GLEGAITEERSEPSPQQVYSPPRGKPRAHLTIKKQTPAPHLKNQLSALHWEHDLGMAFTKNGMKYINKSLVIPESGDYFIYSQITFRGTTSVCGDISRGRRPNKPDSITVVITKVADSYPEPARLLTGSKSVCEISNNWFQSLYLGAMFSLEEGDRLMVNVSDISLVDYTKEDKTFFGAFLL
Procedure: as §1, §2

bovine serum albumin [3] = molecular target: T3, bovine serum albumin (bovine, UniProt P02769 25-607); test: direct binding ELISA on coated BSA
T3 construct: also called BSA
T3 sequence (P02769 25-607 limits assumed): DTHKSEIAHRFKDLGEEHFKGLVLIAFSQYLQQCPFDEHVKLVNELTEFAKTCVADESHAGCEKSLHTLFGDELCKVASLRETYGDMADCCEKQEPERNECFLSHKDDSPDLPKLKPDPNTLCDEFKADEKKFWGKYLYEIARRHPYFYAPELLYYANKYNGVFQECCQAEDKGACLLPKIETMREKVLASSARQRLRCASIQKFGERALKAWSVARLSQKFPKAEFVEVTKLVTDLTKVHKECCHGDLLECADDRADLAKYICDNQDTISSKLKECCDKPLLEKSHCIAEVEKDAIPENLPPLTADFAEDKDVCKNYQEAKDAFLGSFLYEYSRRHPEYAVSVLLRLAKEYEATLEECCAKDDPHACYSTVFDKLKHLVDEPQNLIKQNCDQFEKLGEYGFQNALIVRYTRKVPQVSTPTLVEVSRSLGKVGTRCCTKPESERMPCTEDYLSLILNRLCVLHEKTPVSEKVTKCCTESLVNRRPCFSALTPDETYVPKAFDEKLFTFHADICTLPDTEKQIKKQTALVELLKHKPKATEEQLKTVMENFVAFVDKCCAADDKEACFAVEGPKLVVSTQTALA
Procedure: (§3) For the direct binding ELISA method to HSA or BSA, 96-well high binding plates (Corning, product number 3590) were coated with 1 μg/mL recombinant HSA or BSA in 100 μL/well in PBS overnight at 4° C. Plates were then blocked in PBS+0.02% casein solution and washed with PBS+0.05% Tween-20 following standard ELISA protocol. […] Plates were washed with PBS+0.05% Tween-20 following standard ELISA protocol, and goat anti-human IgG-Fc HRP conjugated secondary antibody (Pierce, #31413) diluted to 1:10,000 in assay buffer was added to plates and incubated for 1 hour at room temperature. Next, the plates were washed with PBS+0.05% Tween-20 following standard ELISA protocol, and then TMB substrate (BioFX Laboratories, catalog number TMBW-0100-01) was added to plates.
(§4) Reactions were stopped after approximately 5 minutes by adding 0.18 M ortho-phosphoric acid to each well and absorbance was read at 450 nm. […] For this method, samples diluted to 0.3 mg/mL were dispensed into the sample tray of a MicroCal VP-Capillary DSC with Autosampler (Malvern Instruments, Inc.), equilibrated for 5 minutes at 10° C. and then scanned up to 110° C. at a rate of 100° C. per/hour. A filtering period of 16 seconds was selected. Raw data was baseline corrected and the protein concentration was normalized. Origin Software 7.0 (Origin Lab Corporation, Northampton, MA) was used to fit the data to an MN2-State Model with an appropriate number of transitions.

human serum albumin [4] = molecular target: T4, human serum albumin (human, UniProt P02768 25-609); test: direct binding ELISA on coated HSA
T4 construct: also called HSA
Procedure: as §3, §4

recombinant human TL1A [5] = molecular target: T5, recombinant human TL1A (human, UniProt O95150 71-251); test: cell-based or functional assay
T5 chain: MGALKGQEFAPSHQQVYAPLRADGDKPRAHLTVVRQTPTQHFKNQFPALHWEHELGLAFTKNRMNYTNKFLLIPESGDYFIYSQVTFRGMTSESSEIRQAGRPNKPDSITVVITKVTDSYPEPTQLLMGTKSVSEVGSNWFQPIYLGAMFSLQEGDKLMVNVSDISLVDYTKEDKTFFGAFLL

human serum albumin [6] = molecular target: T4, human serum albumin; test: direct binding ELISA on plate-coated HSA (1 ug/mL), anti-human IgG-Fc HRP, OD450
Procedure: as §3, §4

bovine serum albumin [7] = molecular target: T3, bovine serum albumin; test: direct binding ELISA on plate-coated BSA (1 ug/mL), anti-human IgG-Fc HRP, OD450
Procedure: as §3, §4

recombinant human TL1A [8] = molecular target: T6, recombinant human TL1A (human, UniProt O95150 71-251); test: cell-based or functional assay
T6 chain: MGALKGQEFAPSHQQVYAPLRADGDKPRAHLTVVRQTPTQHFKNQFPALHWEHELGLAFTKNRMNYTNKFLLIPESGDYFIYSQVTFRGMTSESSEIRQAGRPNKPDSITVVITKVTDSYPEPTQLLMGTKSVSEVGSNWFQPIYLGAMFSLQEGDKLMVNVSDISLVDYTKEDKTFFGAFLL

recombinant human TL1A [9] = molecular target: T6, recombinant human TL1A; test: SPR, recombinant human TL1A
recombinant rat TL1A [10] = molecular target: T7, recombinant rat TL1A (rat, UniProt Q8K3Y7 76-252); test: SPR 37 C, biotinylated TL1A captured, antibody injected; approximate KD
T7 construct: biotinylated with Sulfo-NHS-biotin and captured for SPR
T7 sequence: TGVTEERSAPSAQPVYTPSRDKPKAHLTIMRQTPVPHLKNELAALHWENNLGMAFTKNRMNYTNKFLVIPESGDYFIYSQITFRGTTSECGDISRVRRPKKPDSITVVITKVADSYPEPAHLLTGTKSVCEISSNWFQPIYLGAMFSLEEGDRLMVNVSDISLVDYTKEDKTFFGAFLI
Procedure: as §1

[11] = molecular target: T8, recombinant cynomolgus monkey TL1A (cynomolgus monkey, UniProt O95150 72-251 (human entry)); test: SPR 37 C, biotinylated TL1A captured, antibody injected
T8 construct: biotinylated with Sulfo-NHS-biotin and captured for SPR
T8 chain: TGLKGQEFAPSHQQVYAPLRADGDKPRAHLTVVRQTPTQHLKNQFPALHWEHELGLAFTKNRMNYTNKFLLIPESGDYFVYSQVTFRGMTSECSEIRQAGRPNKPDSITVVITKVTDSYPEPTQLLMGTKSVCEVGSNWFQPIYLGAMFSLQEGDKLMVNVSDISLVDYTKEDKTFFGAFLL
Procedure: as §1

recombinant human TL1A [12] = molecular target: T6, recombinant human TL1A; test: as above
Procedure: as §1

recombinant rat TL1A [13] = molecular target: T7, recombinant rat TL1A; test: as above
Procedure: as §1

recombinant mouse TL1A [14] = molecular target: T9, recombinant mouse TL1A (mouse, UniProt Q5UBV8 75-252); test: as above
T9 construct: biotinylated with Sulfo-NHS-biotin and captured for SPR
T9 chain: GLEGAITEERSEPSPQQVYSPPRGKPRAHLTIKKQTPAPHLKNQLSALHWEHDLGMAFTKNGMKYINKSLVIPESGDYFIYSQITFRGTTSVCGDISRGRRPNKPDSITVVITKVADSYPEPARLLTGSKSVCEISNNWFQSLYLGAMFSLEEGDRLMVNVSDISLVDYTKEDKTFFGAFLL
Procedure: as §1

B1: TL1A-0372 monovalent bispecific antibody (bispecific antibody, human IgG1, kappa)
heavy 1: QVQLVQSGAEVKKPGASVKVSCKASGYDYTYYGISWVRQAPGQGLEWMGWISTYNTGTHYAPSLQGRVTMTTDTSTSTAYMELRSLRSDDTAVYYCARESYYGSGAFRGGMDVWGQGTTVTVSSASTKGPSVFPLAPSSKSTSGGTAALGCLVKDYFPEPVTVSWNSGALTSGVHTFPAVLQSSGLYSLSSVVTVPSSSLGTQTYICNVNHKPSNTKVDKKVEPKSCDKTHTCPPCPAPEAAGAPSVFLFPPKPKDTLMISRTPEVTCVVVDVSHEDPEVKFNWYVDGVEVHNAKTKPREEQYNSTYRVVSVLTVLHQDWLNGKEYKCKVSNKALPAPIEKTISKAKGQPREPQVCTLPPSREEMTKNQVSLWCLVKGFYPSDIAVEWESNGQPENNYKTTPPVLDSDGSFFLYSKLTVDKSRWQQGNVFSCSVLHEALHSHYTQKSLSLSPGK
heavy 2: not shown
light: not shown
notes: KiH, LS
fold higher affinity to human TL1A than to this TL1A [1]: ~2 fold
fold higher affinity to human TL1A than to this TL1A (recombinant mouse TL1A [2]): ~546 fold
binding result (bovine serum albumin [3]): no binding (tested: 0.5-1000 nM)
binding result (human serum albumin [4]): no binding (tested: 0.5-1000 nM)
NF-κB assay in TF-1 reporter cells, neutralization relative to TL1A-0002 (recombinant human TL1A [5]): ≤ 2 fold

B2: TL1A-0372 (bispecific antibody, human IgG1, kappa)
heavy 1: QVQLVQSGAEVKKPGASVKVSCKASGYDYTYYGISWVRQAPGQGLEWMGWISTYNTGTHYAPSLQGRVTMTTDTSTSTAYMELRSLRSDDTAVYYCARESYYGSGAFRGGMDVWGQGTTVTVSSASTKGPSVFPLAPSSKSTSGGTAALGCLVKDYFPEPVTVSWNSGALTSGVHTFPAVLQSSGLYSLSSVVTVPSSSLGTQTYICNVNHKPSNTKVDKKVEPKSCDKTHTCPPCPAPEAAGAPSVFLFPPKPKDTLMISRTPEVTCVVVDVSHEDPEVKFNWYVDGVEVHNAKTKPREEQYNSTYRVVSVLTVLHQDWLNGKEYKCKVSNKALPAPIEKTISKAKGQPREPQVCTLPPSREEMTKNQVSLWCLVKGFYPSDIAVEWESNGQPENNYKTTPPVLDSDGSFFLYSKLTVDKSRWQQGNVFSCSVLHEALHSHYTQKSLSLSPGK
heavy 2: not shown
light: not shown
notes: monovalent bispecific (null-arm) antibody, IgG1 KiH, LS
binding result (human serum albumin [6]): no binding (tested: 1e-6 M)
binding result (bovine serum albumin [7]): no binding (tested: 1e-6 M)
NFκB Bioassay IC50 (recombinant human TL1A [8]): 1.47 nM
Kd (recombinant human TL1A [9]): 0.286 nM
koff (recombinant human TL1A [9]): 4.98e-05 s⁻¹
kon (recombinant human TL1A [9]): 174000 M⁻¹ s⁻¹
Kd (recombinant rat TL1A [10]): ~1510 nM
Kd [11]: 1.27 nM
koff [11]: 0.000121 s⁻¹
kon [11]: 96400 M⁻¹ s⁻¹
Kd (recombinant human TL1A [12]): 0.54 nM
koff (recombinant human TL1A [12]): 6.21e-05 s⁻¹
kon (recombinant human TL1A [12]): 114000 M⁻¹ s⁻¹
koff (recombinant rat TL1A [13]): 0.0483 s⁻¹
kon (recombinant rat TL1A [13]): 32200 M⁻¹ s⁻¹
Kd (recombinant mouse TL1A [14]): 295 nM
koff (recombinant mouse TL1A [14]): 0.00708 s⁻¹
kon (recombinant mouse TL1A [14]): 24000 M⁻¹ s⁻¹

From patent US20240059799A1 (Pfizer, published 2024)
